This series concerns the molecule itself. Description: SEC; gel filtration analysis of S. aureus MvaA protein; conditions not told in the text (Supplementary Fig. 9). (SEC sorts molecules by how far they enter the pores of the column.)

The values that follow come from paper PMC4790635, “A critical role of mevalonate for peptidoglycan synthesis in Staphylococcus aureus” (Scientific Reports, 2016).

The term stoichiometry N denotes a count of units in the complex or per binding partner.

B1: S. aureus MvaA protein (HMG-CoA reductase), His-tag fused recombinant wild-type (enzyme, Staphylococcus aureus (strain RN4220), UniProt Q9FD86 1-425, looked up)
chain: MQSLDKNFRHLSRQQKLQQLVDKQWLSEDQFDILLNHPLIDEEVANSLIENVIAQGALPVGLLPNIIVDDKAYVVPMMVEEPSVVAAASYGAKLVNQTGGFKTVSSERIMIGQIVFDGVDDTEKLSADIKALEKQIHKIADEAYPSIKARGGGYQRIAIDTFPEQQLLSLKVFVDTKDAMGANMLNTILEAITAFLKNESPQSDILMSILSNHATASVVKVQGEIDVKDLARGERTGEEVAKRMERASVLAQVDIHRAATHNKGVMNGIHAVVLATGNDTRGAEASAHAYASRDGQYRGIATWRYDQKRQRLIGTIEVPMTLAIVGGGTKVLPIAKASLELLNVDSAQELGHVVAAVGLAQNFAACRALVSEGIQQGHMSLQYKSLAIVVGAKGDEIAQVAEALKQEPRANTQVAERILQEIRQQ
notes: MvaA protein (HMG-CoA reductase) of Staphylococcus aureus RN4220; mvaA gene amplified by PCR from chromosomal DNA with primers FmvaA-His and RmvaA-His and ligated into pET28a in-frame with the N-terminal histidine tag; also called SaMvaA; WT MvaA; source: E. coli BL21(DE3)pLysS, purified (nickel-chelating resin, dialysis)
Take B1: the “stoichiometry N” value came out at 2.
